Measurements as given in article PMC5981469.

Target: envelope protein domain III from dengue virus serotype 2 (DENV2 DIII) (dengue virus serotype 2)
Assay: ITC

Kd [nM]	other [kcal/mol]	stoichiometry N [sites]	Substance
1.64	-4.28	1.01	single-chain variable fragment of humanized monoclonal antibody 513 (scFv513), wild type
28.7	-1.78	0.99	scFv513 bearing the single mutation GluH55Ala
12.8	-1.89	1.04	scFv4E11 bearing the AlaH55Glu mutation
30.7	-2.09	0.96	single-chain variable fragment of murine monoclonal antibody 4E11 (scFv4E11), wild type
